Test results reported in article PMC1831719, “Elucidating the Ticking of an In Vitro Circadian Clockwork” (PLoS Biology, 2007).

Target: the molecule itself
Experiment: negative-stain electron microscopy with image classification; aliquots every 3 h from the oscillating KaiA/KaiB/KaiC mixture (50 ng/ul KaiA, 50 ng/ul KaiB, 200 ng/ul KaiC, 1 mM ATP, 30 °C); 0.75% uranyl formate; particles sorted into four meta classes at seven phases

B1: KaiC (natural protein, S. elongatus, UniProt Q79PF4 1-519, looked up)
chain: MTSAEMTSPNNNSEHQAIAKMRTMIEGFDDISHGGLPIGRSTLVSGTSGTGKTLFSIQFLYNGIIEFDEPGVFVTFEETPQDIIKNARSFGWDLAKLVDEGKLFILDASPDPEGQEVVGGFDLSALIERINYAIQKYRARRVSIDSVTSVFQQYDASSVVRRELFRLVARLKQIGATTVMTTERIEEYGPIARYGVEEFVSDNVVILRNVLEGERRRRTLEILKLRGTSHMKGEYPFTITDHGINIFPLGAMRLTQRSSNVRVSSGVVRLDEMCGGGFFKDSIILATGATGTGKTLLVSRFVENACANKERAILFAYEESRAQLLRNAYSWGMDFEEMERQNLLKIVCAYPESAGLEDHLQIIKSEINDFKPARIAIDSLSALARGVSNNAFRQFVIGVTGYAKQEEITGLFTNTSDQFMGAHSITDSHISTITDTIILLQYVEIRGEMSRAINVFKMRGSWHDKAIREFMISDKGPDIKDSFRNFERIISGSPTRITVDEKSELSRIVRGVQEKGPES
notes: KaiC, circadian clock protein of Synechococcus elongatus; In the cycling reaction KaiC oscillates between hypo- and hyperphosphorylated forms (sites T426, S431, T432); also called KaiC hexamer; P-KaiC; source: E. coli, purified
B1 was tested, and the “stoichiometry N” value was 6.
